In the experiment the target is hepatitis B virus (HBV) truncated core protein Cp149 dimer (hepatitis B virus). Nature of the experiment: resistive-pulse sensing.

Broadly, the stoichiometry N is a count of units in the complex or per binding partner.

Take “hepatitis B virus (HBV) truncated core protein Cp149 dimer (domain or fragment)”: the stoichiometry N was determined as 90 dimers.

For the origin of these results see paper PMC6510601.
